The text below walks through data of patent publication US8409836B2, “Treatment of cellulosic material and enzymes useful therein” (Roal Oy, priority 2005, dated 2013).

As a reminder, the Km is the concentration of substrate that gives half-maximal velocity. In general, kcat refers to the number of substrate molecules converted per active site and unit of time at saturation. As usually defined, the kcat/Km is the second-order rate constant that governs catalysis at low substrate concentration.

One series can be described thus: Specific activity on MUL. The format is biochemical. The note with it: purified xylanase, 50° C. pH 5.0 10 min. The method, then:
(§1) The specific activity of the preparations was determined using 4-methylumbelliferyl-β-D-lactoside (MUL), 4-methylumbelliferyl-β-D-cellobioside (MUG2) or 4-methylumbelliferyl-β-D-cellotrioside (MUG3) as substrate (van Tilbeurgh et al., 1988) in 0.05 M sodium citrate buffer pH 5 at 50° C. for 10 min. Endoglucanase and xylanase activities were determined by standard procedures (according to IUPAC, 1987) using carboxymethyl cellulose (CMC) and birch glucuronoxylan (Bailey et al., 1992) as substrates. Specific activity against Avicel was calculated on the basis of reducing sugars formed in a 24 h reaction at 50° C., pH 5.0, with 1% substrate and 0.25 μM enzyme dosage. The protein content of the purified enzyme preparations was measured according to Lowry et al., 1951. To characterize the end products of hydrolysis, soluble sugars liberated in 24 h hydrolysis experiment, as described above, were analysed by HPLC (Dionex). Purified cellobiohydrolase I (CBHI/Cel7A) of Trichoderma reesei was used as a reference.

Series [1] is described as follows: Specific activity on MUG2. The format is biochemical. The note with it: purified xylanase, 50° C. pH 5.0 10 min. How it is done:
as §1

Series [2] is described as follows: Xylanase activity on birch xylan. In kind it is biochemical. The method, then:
as §1
Acremonium thermophilum ALKO4245 was grown as described in Example 1. The culture supernatant was incubated at 70° C. for 24 hours after which, it was concentrated by ultrafiltration. The pure xylanase was obtained by sequential purification with hydrophobic interaction and cation exchange chromatography followed by gel filtration. The xylanase activity was determined using birch xylan as substrate (procedure of IUPAC 1987). Protein was assayed by BioRad Protein Assay Kit (Bio-Rad Laboratories) using bovine serum albumin as standard.
Thermoascus aurantiacus ALKO4242 was grown as described in Example 1. The pure xylanase was obtained by sequential purification with hydrophobic interaction, anion, and cation exchange chromatography followed by gel filtration. The xylanase activity was determined using birch xylan as substrate (procedure of IUPAC 1987). Protein was assayed by BioRad Protein Assay Kit (Bio-Rad Laboratories) using bovine serum albumin as standard.

Series [3] in a line: Specific activity on MUG3. In kind it is biochemical. The note with it: purified xylanase, 50° C. pH 5.0 10 min. How it is done:
as §1

The nature of series [4]: Hydrolysis with CBH enzyme mixtures, willow. The format is biochemical. The settings on record: additional enzymes EGII, bG, 48 h, 45° C., pH 5.0. How it is done:
(§2) The performance of the purified recombinant cellobiohydrolases was evaluated in the hydrolysis studies with purified T. reesei enzymes. Hydrolysis was carried out with controlled mixtures of purified enzymes on several pre-treated substrates. […] In addition, pure T. reesei cellulases (purified as described by Suurnäkki et al., 2000) were used in the enzyme mixtures. The cellobiohydrolases used in the experiment were:
(§3) Each CBH/Cel7 to be tested (dosage 14.5 mg/g dry matter of substrate) was used either together with EGII/Cel5A of T. reesei (3.6 mg/g) or with a mixture containing T. reesei EGI/Cel7B (1.8 mg/g), EGII/Cel5A (1.8 mg/g), xylanase pI 9 (Tenkanen et al. 1992) (5000 nkat/g) and acetyl xylan esterase (AXE) (Sundberg and Poutanen, 1991) (250 nkat/g). All mixtures were supplemented with additional β-glucosidase from a commercial enzyme preparation Novozym 188 (176 nkat/g d.w.). Triplicate tubes containing the enzyme mixture and 10 mg (dry matter)/ml of the substrate suspended in 0.05 M sodium acetate were incubated in mixing by magnetic stirring at 45° C. for 48 h. Reference samples with inactivated enzymes and corresponding substrates were also prepared. The release of hydrolysis products was measured as reducing sugars with DNS method using glucose as standard (Table 30).
Washed steam pre-treated willow fibre (pre-treatment for 14 min at 210° C.), dry matter 23.0% (WILLOW).

Series [5] can be described thus: pH optimum of recombinant CBH/Cel7 proteins. The note with it: McIlvaine buffer, pH range 3.0-8.0, MUL, 50° C., 10 min. In kind it is biochemical. The method, then: The recombinant CBH/Cel7 enzyme preparations were characterized in terms of pH optimum and thermal stability. The pH optimum of the recombinant CBH/Cel7 proteins from Thermoascus aurantiacus, Chaetomium thermophilum, and Acremonium thermophilum were determined in the universal McIlvaine buffer within a pH range of 3.0-8.0 using 4-methylumbelliferyl-β-D-lactoside (MUL) as a substrate (FIG. 3A). The pH optimum for Ct Cel7A and At Cel7A enzymes is at 5.5, above which the activity starts to gradually drop. The pH optimum of the recombinant crude Ta Cel7A is at 5.0 (FIG. 3A). Thermal stability of the recombinant Cel7 enzymes was determined by measuring the MUL activity in universal McIlvaine buffer at the optimum pH with reaction time of 1 h.

Series [6] can be described thus: Hydrolysis with CBH enzyme mixtures, spruce. In kind it is biochemical. The settings on record: additional enzymes EGII, bG; 48 h, 45° C., pH 5.0. How it is done:
as §2, §3
Washed steam pre-treated spruce fibre (impregnation with 3% w/w SO2 for 20 min, followed by steam pre-treatment at 215° C. for 5 min), dry matter 25.9% (SPRUCE).

Series [7] is described as follows: Hydrolysis with CBH enzyme mixtures, corn stover. In kind it is biochemical. The settings on record: additional enzymes EGII, bG, 48 h, 45° C., pH 5.0. How it is done:
as §2, §3
Washed wet oxidized corn stover fibre (WOCS).

Series [8] is described as follows: Hydrolysis with CBH enzyme mixtures, Avicel. The format is biochemical. The note with it: additional enzymes EGII, bG; 48 h, 45° C., pH 5.0. How it is done:
as §2, §3
Crystalline cellulose (Avicel)

Substrate in series [9]: O=[N+]([O-])c1ccc(O[C@@H]2O[C@H](CO)[C@@H](O[C@@H]3O[C@H](CO)[C@H](O)[C@H](O)[C@H]3O)[C@H](O)[C@H]2O)c(Cl)c1
As to the kind of experiment: Michaelis-Menten kinetic constants on CNPLac. The format is biochemical, Trichoderma reesei. The settings on record: other: Tr Cel7A, 50 mM sodium phosphate pH 5.7, 22° C. How it is done: (§4) The Michaelis-Menten and cellobiose inhibition constants were determined from the cellobiohydrolases produced heterologously in T. reesei (Examples 14 and 15). The enzymes were purified as described in Example 2. Protein concentrations of purified enzymes were measured by their absorption at 280 nm using a theoretical molar extinction co-efficient, which were calculated from the amino acid sequences (Gill and von Hippel, 1989).
(§5) Kinetic constants (Km and kcat values) and cellobiose inhibition constant (Ki) for Tr CBHI/Cel7A, Ta CBH/Cel7A, At CBH/Cel7A and Ct CBH/Cel7A, were measured using CNPLac (2-Chloro-4-nitrophenyl-β-D-lactoside) as substrate at ambient temperature (22° C.) in 50 mM sodium phosphate buffer, pH 5.7. For the determination of the inhibition constant (Ki), eight different substrate concentrations (31-4000 μM) in the presence of a range of five inhibitor concentrations (0-100 μM or 0-400 μM), which bracket the Ki value, were used. All experiments were performed in microtiter plates and the total reaction volume was 200 μl. The initial rates were in each case measured by continuous monitoring the release of the chloro-nitrophenolate anion (CNP, 2-Chloro-4-nitrophenolate) through measurements at 405 nm using Varioscan (Thermolabsystems) microtiter plate reader. The results were calculated from CNP standard curve (from 0 to 100 μM). Enzyme concentrations used were: Tr CBHI/Cel7A 2.46 μM, Ta CBH/Cel7A 1.58 μM, Ct CBH/Cel7A 0.79 μM and At CBH/Cel7A 3 μM. The Km and kcat constants were calculated from the fitting of the Michaelis-Menten equation using the programme of Origin. Lineweaver-Burk plots, replots (LWB slope versus [Glc2; cellobiose]) and Hanes plots were used to distinguish between competitive and mixed type inhibition and to determine the inhibition constants (Ki).

Substrate in series [10]: O=[N+]([O-])c1ccc(O[C@@H]2O[C@H](CO)[C@@H](O[C@@H]3O[C@H](CO)[C@H](O)[C@H](O)[C@H]3O)[C@H](O)[C@H]2O)c(Cl)c1
As to the kind of experiment: Michaelis-Menten kinetic constants on CNPLac. The format is biochemical, Chaetomium thermophilum. The settings on record: other: Ct Cel7A, 50 mM sodium phosphate pH 5.7, 22° C. The method, then:
as §4, §5

B1: At XYN_60: xylanase of Acremonium thermophilum ALKO4245, gene At xyn10A, amino acid SEQ ID NO: 20 (protein)
chain: MRAKQLLAAGLLAPASVSAQLNSLAVAAGLKYFGTAVREANVNGDATYMSYVNNKSEFGQVTPENGQKWDSTEPSQGQFSYSQGDIVPGVAKKNGQVLRCHTLVWYSQLPSWVSSGSWTRATLQSVIETHISNVMGHYKGQCYAWDVVNEAINDDGTWRTSVFYNTFNTDYLAIAFNAAKKADAGAKLYYNDYNLEYNGAKTNTAVQLVQIVQQAGAPIDGVGFQGHLIVGSTPSRSSLATALKRFTALGLEVAYTELDIRHSSLPPSSAALATQGNDFASVVGSCLDVAGCVGITIWGFTDKYSWVPDTFPGSGAALLYDANYSKKPAWTSVSSVLAAKATNPPGGGNPPPVTTTTTTTTTSKPSQPTTTTTTTSPQGPQQTHWGQCGGIGWTGPQSCQSPWTCQKQNDWYSQCL
Take B1: in “Specific activity on MUL”, the “Specific activity against MUL” value was determined as 33 nkat/mg. For the same molecule, the “Specific activity against MUG2” value in series [1] is listed as 54 nkat/mg. In series [2] (10 min, pH 5.0), the “Relative activity at 60° C. as compared to 50° C.” value is reported as “about 1.2 fold” and the “Relative activity at 70° C. as compared to 50° C.” value is reported as ~1.65 fold. In addition, the “Specific activity on birch xylan” value in series [2] (purified xylanase, 50° C., procedure of IUPAC 1987) turned out to be 1800 nkat/mg. In addition, the “Specific activity against MUG3” value in series [3] is on record as 78 nkat/mg.

B2: Ta Cel7A: cellobiohydrolase of Thermoascus aurantiacus ALKO4242, gene Ta cel7A, amino acid SEQ ID NO: 2, no CBD (protein)
chain: MYQRALLFSFFLAAARAQQAGTVTAENHPSLTWQQCSSGGSCTTQNGKVVIDANWRWVHTTSGYTNCYTGNTWDTSICPDDVTCAQNCALDGADYSGTYGVTTSGNALRLNFVTQSSGKNIGSRLYLLQDDTTYQIFKLLGQEFTFDVDVSNLPCGLNGALYFVAMDADGGLSKYPGNKAGAKYGTGYCDSQCPRDLKFINGQANVEGWQPSANDPNAGVGNHGSCCAEMDVWEANSISTAVTPHPCDTPGQTMCQGDDCGGTYSSTRYAGTCDPDGCDFNPYRQGNHSFYGPGQIVDTSSKFTVVTQFITDDGTPSGTLTEIKRFYVQNGKVIPQSESTISGVTGNSITTEYCTAQKAAFGDNTGFFTHGGLQKISQALAQGMVLVMSLWDDHAANMLWLDSTYPTDADPDTPGVARGTCPTTSGVPADVESQYPNSYVIYSNIKVGPINSTFTAN
B2: the “Hydrolysis products as reducing sugars, WILLOW” value was 2.8 mg/mL in [4] (EGI, XYL, AXE) and 2.0 mg/mL in series [4]. In [5], the pH optimum was found to be 5.0. Moreover, the “Hydrolysis products as reducing sugars, SPRUCE” value in [6] came to 2.0 mg/mL. The “Hydrolysis products as reducing sugars, WOCS” value is 4.3 mg/mL in series [7] (EGI, XYL, AXE) and 2.8 mg/mL in [7]. For the same molecule, the “Hydrolysis products as reducing sugars, Avicel” value in series [8] came out at 2.0 mg/mL.

B3: Trichoderma reesei cellobiohydrolase I Tr Cel7A (Tr CBHI/Cel7A) (Trichoderma reesei RUT C-30) (protein)
chain: QSACTLQSETHPPLTWQKCSSGGTCTQQTGSVVIDANWRWTHATNSSTNCYDGNTWSSTLCPDNETCAKNCCLDGAAYASTYGVTTSGNSLSIGFVTQSAQKNVGARLYLMASDTTYQEFTLLGNEFSFDVDVSQLPCGLNGALYFVSMDADGGVSKYPTNTAGAKYGTGYCDSQCPRDLKFINGQANVEGWEPSSNNANTGIGGHGSCCSEMDIWEANSISEALTPHPCTTVGQEICEGDGCGGTYSDNRYGGTCDPDGCDWNPYRLGNTSFYGPGSSFTLDTTKKLTVVTQFETSGAINRYYVQNGVTFQQPNAELGSYSGNELNDDYCTAEEAEFGGSSFSDKGGLTQFKKATSGGMVLVMSLWDDYYANMLWLDSTYPTNETSSTPGAVRGSCSTSSGVPAQVESQSPNAKVTFSNIKFGPIGSTGNPSGGNPPGGNPPGTTTTRRPATTTGSSPGPTQSHYGQCGGIGYSGPTVCASGTTCQVLNPYYSQCL
On to B3, for which, in series [9], the Km came to 520 µM, the kcat was determined as 0.0433 s⁻¹ and the kcat/Km was found to be 83.3 M⁻¹ s⁻¹.

B4: Chaetomium thermophilum ALKO4265 cellobiohydrolase Ct Cel7A (Ct CBH/Cel7A), recombinant, SEQ ID NO: 8 (Thermochaetoides thermophila) (protein)
chain: QQACSLTAENHPSLTWKRCTSGGSCSTVNGAVTIDANWRWTHTVSGSTNCYTGNQWDTSLCTDGKSCAQTCCVDGADYSSTYGITTSGDSLNLKFVTKHQYGTNVGSRVYLMENDTKYQMFELLGNEFTFDVDVSNLGCGLNGALYFVSMDADGGMSKYSGNKAGAKYGTGYCDAQCPRDLKFINGEANVGNWTPSTNDANAGFGRYGSCCSEMDVWEANNMATAFTPHPCTTVGQSRCEADTCGGTYSSDRYAGVCDPDGCDFNAYRQGDKTFYGKGMTVDTNKKMTVVTQFHKNSAGVLSEIKRFYVQDGKIIANAESKIPGNPGNSITQEYCDAQKVAFSNTDDFNRKGGMAQMSKALAGPMVLVMSVWDDHYANMLWLDSTYPIDQAGAPGAERGACPTTSGVPAEIEAQVPNSNVIFSNIRFGPIGSTVPGLDGSNPGNPTTTVVPPASTSTSRPTSSTSSPVSTPTGQPGGCTTQKWGQCGGIGYTGCTNCVAGTTCTQLNPWYSQCL
Turning to B4, in series [10], the Km was determined as 1960 µM, the kcat was determined as 0.313 s⁻¹ and the kcat/Km was 158 M⁻¹ s⁻¹.
